The DeepSol protein solubility set

test: soluble on expression in E. coli; label from the status in PepcDB or PDB records

Sequence | soluble on expression in E. coli
MAQVRKAHPKDLAAIARLSHQTLFLGREGPKVFPSETLWGALFVAPYLEAGCCNLVAEEEGRVVGYILGACADRPLALAFAKRLLWALPRLLLGRFGPPLPHLRYLLRLLRYPGPKAPKDRYPAHLHIAVDPEAQGHGVGKALLAAFLKCLREKGVPGVQLATTRANRAARGLYRAMGFRVYAKRASPFWAPYLGRPLIHEVWVRDLG | soluble
MKIMAICGSGLGSSFMVEMNIKKVLKKLNIDAEVEHSDLSSATPGAADLFVMAKDIAASASVPESQLVVINNIIDINELETQLRAWFAKQ | not soluble
MGSDKIHHHHHHMSLHAPTFSKLFSGVIWKIIADSDTGTVYVETRDGDKRKALFHAFDLQAKKMLWADVSILDAWWSSLKIANKGNLLVVKFNDPDMPEQRGFAVIDGKTSKLLWGKDDAQVMQAEPDGIIVAEGKEEDSSYLKLDWAAGKTLGAVSVKEMFSGFNKKAQTRSFVLYPFHFEEENSFFSKIKEYIEIITGHKAVRMIEYLEKGDKVLISYYIYEEEKLTNFILVADEKGALLVHEKLNAGLKGIGMDTFFVLKDQLIVVKNNNELQSYVIK | not soluble
MTKIWTRDGFAENDPWVIETEEVKATGEQKPVLPLADFLVRAAESNDIGLGVLISPADDVNRLEPYLDRIDLVAVSFPAFNDGRGFSHASLLRSRLGFAGEVRAVGDVLIDQVPLMLRTGFTSFAVTNETAIRRLSENRLPEITVYYQPTALPATGGEAYSWRRRAAQ | not soluble
MAPGTAELEIDETLHLLRMVMQREFIHYLETLPGTKELFIDKCLLRPLDMIATSSDMKRHGVKRIMHFDLQKSPQVWNIEIDQRVFFLRPNVENARKIVEYVEESSENRSICVIWCNRQLEECDLAFESSGVIGHITQLSLNMCLLPLESDLFSLQHVESAQPDLFSVANMFVALQNLYGVIPTVYGLGSESKNLWNLVHALCSSNELRARPDQPISHLFLFDRQLDPVPVLLTGASYEGLLHEFFTIDCGKLAFPVDLRKQVQTGPLDFDWIEINPEEDKEAHQQNRGDTVKLDNCEDIFASIRNKHVTAALEFLHSKAKSIQKSIEKSSMIDDVADYRNFVEKDLRALKKDHKHCELHINACEMMMNKVKMEDYRTMFKLEHEMLLGTVTHEEYFDFVFERVPMRSCRDVVLSMMSLASLKLDGVPDDTYNEFVEMYLQKYGYEHMFELQNLRNSRVIYARRHIAHDRTISERARTWETLARKFRIVKGNEPMDMSNPSDMSYVFGARISPLLCKIVEDTIDHGWNQAEYERIIGKDKVLVEENTYIAADRRPDNRTRKAIMVFVNGGITYWEVAALRLLAIQKNFRILICTTHVIKKREYLEVRAKDASSVFGS | not soluble
LTSGNINIGNLKVGNDYPMRVLGEIVHVPWLSKEELEEKVNYYVESGADMIDLGMVSNEDYSKDLKQIIKTVRDITDKPVSVDTLNTKELIEAVNLDVDMILSVDSGNFDELLPYLKEKNTVSVVLPTNYKTNEVPKKISEKIQNMEKILEKFKENDLLAVADPILEPINNSGCNFTESVIACYEFKKRNNIPMFFGIGNVTELFDVDSNGVNASIAAIGQEIGGNILFTPEASKKCKFSIKELKTASKMLFLAKKRNSLP | not soluble
MWKTYTRYQAVYKKAQWPLTLYFDGECPLCAREIKVLRARAAADRLLFVDISDDAFDASLLGLTLPQMESSLHARFDDGTWVTGLDATLWSWRAAGLGKWVAPLSWPILRPLFTVLYRLFCRFRPHLAWLPHPDGGRRCSKGSCTVAESVVMKSEASAEKKIS | not soluble
MHSGAYFFYAAPRAGTAGKQAMPIEGIDYRLVFASDVNPRDGLGLECWRGEQPLFEVFRDDVGRRFVVNLFASDVPLELLEAIIPTARRELGDFPRRSASRGVAKPG | soluble
APLATRQGKRPSKNLKARCSRKALHVNFKDMGWDDWIIAPLEYEAFHCEGLCEFPLRSHLEPTNHAVIQTLMNSMDPESTPPTCCVPTRLSPISILFIDSANNVVYKQYEDMVVESCGCR | soluble
